# Experimental data as given in paper PMC11006913.
# Assays:
# Experiment in all cases: PBM
# SHOX R173C (human) = settings: contrastQ 1.38E-15; Universal PBM, 200 nM protein in PBS; temperature and pH not stated in the material
# HOXD13 T313R (human) = settings: contrastQ 1.85E-52; Universal PBM, 200 nM protein in PBS; temperature and pH not stated in the material
# HESX1 N125S (human) = settings: Universal PBM, 200 nM protein in PBS, temperature and pH not stated in the material
# HESX1 E149K (human) = settings: contrastQ 9.83E-08; Universal PBM, 200 nM protein in PBS; temperature and pH not stated in the material
# HESX1 R109Q (human) = settings: contrastQ 1.24E-92; Universal PBM, 200 nM protein in PBS; temperature and pH not stated in the material
# PROP1 R99Q (human) = settings: contrastQ 2.52E-38; Universal PBM, 200 nM protein in PBS; temperature and pH not stated in the material
# PROP1 F88S (human) = settings: contrastQ 3.19E-277; Universal PBM, 200 nM protein in PBS; temperature and pH not stated in the material
# HESX1 R160C (human) = settings: contrastQ 1.53E-116; Universal PBM, 200 nM protein in PBS; temperature and pH not stated in the material
# NKX2-5 K183E (human) = settings: Universal PBM, 200 nM protein in PBS, temperature and pH not stated in the material
# ARX T333N (human) = settings: contrastQ 5.30E-28; Universal PBM, 200 nM protein in PBS; temperature and pH not stated in the material
# ARX L343Q (human) = settings: contrastQ 3.05E-194; Universal PBM, 200 nM protein in PBS; temperature and pH not stated in the material
# ARX P353R (human) = settings: Universal PBM, 200 nM protein in PBS; temperature and pH not stated in the material
# HOXD13 S316C (human) = settings: contrastQ 0.9698003 (no significant change); Universal PBM, 200 nM protein in PBS; temperature and pH not stated in the material
# HOXD13 I322L (human) = settings: Universal PBM, 200 nM protein in PBS, temperature and pH not stated in the material
substance,measurement,setting,value
PBM 8-mer ATTATAAT,binding signal (contrast difference vs reference),SHOX R173C (human),-1.91
PBM 8-mer CAATAAAA,binding signal (contrast difference vs reference),HOXD13 T313R (human),-1.23
PBM 8-mer CAATTAAA,binding signal (contrast difference vs reference),HESX1 N125S (human); contrastQ 0.7783541 (no significant change),-0.277
PBM 8-mer CTAATTGA,binding signal (contrast difference vs reference),HESX1 E149K (human),-0.502
same,binding signal (contrast difference vs reference),HESX1 R109Q (human),-3.4
same,binding signal (contrast difference vs reference),PROP1 R99Q (human),-0.687
same,binding signal (contrast difference vs reference),HESX1 N125S (human); contrastQ 0.9069244 (no significant change),-0.172
same,binding signal (contrast difference vs reference),PROP1 F88S (human),-4.12
same,binding signal (contrast difference vs reference),HESX1 R160C (human),-2.1
PBM 8-mer GCACTTCA,binding signal (contrast difference vs reference),NKX2-5 K183E (human); contrastQ 5.13E-38,-1.27
PBM 8-mer GCACTTGA,binding signal (contrast difference vs reference),NKX2-5 K183E (human); contrastQ 1.87E-56,-1.44
PBM 8-mer GTTAATTA,binding signal (contrast difference vs reference),ARX T333N (human),-0.803
same,binding signal (contrast difference vs reference),ARX L343Q (human),-2.29
same,binding signal (contrast difference vs reference),ARX P353R (human),-2.42
PBM 8-mer TCATAAAA,binding signal (contrast difference vs reference),HOXD13 S316C (human),0.133
same,binding signal (contrast difference vs reference),HOXD13 I322L (human); contrastQ 8.96E-16,-1.15
PBM 8-mer TCGTAAAA,binding signal (contrast difference vs reference),HOXD13 S316C (human),0.128
same,binding signal (contrast difference vs reference),HOXD13 I322L (human); contrastQ 3.41E-01 (no significant change),0.259
